Results on two molecules are retold here after US20180273621A1 (AstraZeneca / MedImmune, published 2018).

Assay [1] has as its target T1, human CD19 antigen (human, UniProt P15391 20-556).
T1 construct: whole, on cells; also called hCD19; recombinant human CD19
T1 sequence (looked up): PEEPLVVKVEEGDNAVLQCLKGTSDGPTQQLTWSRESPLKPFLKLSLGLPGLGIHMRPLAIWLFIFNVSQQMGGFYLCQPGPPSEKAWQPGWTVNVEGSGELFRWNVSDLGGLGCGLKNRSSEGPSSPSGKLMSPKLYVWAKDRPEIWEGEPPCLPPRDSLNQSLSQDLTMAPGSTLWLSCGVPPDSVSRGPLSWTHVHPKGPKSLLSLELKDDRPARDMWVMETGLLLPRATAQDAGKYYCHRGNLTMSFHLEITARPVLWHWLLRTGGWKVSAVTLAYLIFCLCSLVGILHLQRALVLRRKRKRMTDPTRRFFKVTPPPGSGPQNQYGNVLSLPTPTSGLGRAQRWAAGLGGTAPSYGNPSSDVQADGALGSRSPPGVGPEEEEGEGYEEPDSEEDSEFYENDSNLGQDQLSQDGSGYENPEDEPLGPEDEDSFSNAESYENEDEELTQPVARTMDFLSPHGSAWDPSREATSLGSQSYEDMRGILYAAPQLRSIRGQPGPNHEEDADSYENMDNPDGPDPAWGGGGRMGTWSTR
Kind of assay: cell based ECL binding assay (Meso Scale Discovery; Lu et al. 2006) on Raji cells as titled on the sheet, Fab supernatant, signal in Units. The protocol:
(§1) CDR specific phage display libraries were generated as described above. Libraries were screened by testing a large number of phage clones (approximately 400 clones per library) in single point cell based binding assay (Lu et al., J. Immunol. Methods 314:74-79 (2006)). Reagents and disposables were purchased from Meso Scale Discovery; assays were performed following the manufacturer's instructions.
(§2) Combinatorial phage display libraries were prepared as described above. Individual Fab clones from the combinatorial library were tested for binding to 300B4 and Raji cells (Lu et al., J. Immunol. Methods 314:74-79 (2006)).

Assay [2] addresses T1, human CD19 antigen. Kind of assay: cell based ECL binding assay (Meso Scale Discovery; Lu et al. 2006) on 300B4 cells as titled on the sheet, Fab supernatant, signal in Units. The protocol:
as §1, §2

Assay [3] addresses T1, human CD19 antigen. Kind of assay: cell based ECL binding assay (Meso Scale Discovery; Lu et al. 2006) on 300B4 cells expressing recombinant human CD19, Fab supernatant, signal in Units. As for the experimental part:
as §1

B1: 3C3 affinity matured Fab (16C4 variant) (Fab, V domains shown)
VH: EVQLVESGGGLVQPGGSLRLSCAASGFTFSSVWMNWVRQAPGKGLEWVGRIYPGDGDTNYNVKFKGRFTISRDDSKNSLYLQMNSLKTEDTAVYYCARSGFITTVRDFDYWGQGTLVTVSS
VL: EIVLTQSPDFQSVTPKEKVTITCRASESVDHFGISFINWFQQKPDQSPKLLIHEASNPYSGVPSRFSGSGSGTDFTLTINSLEAEDAATYYCAQSKEVPITFGGGTKVEIK
notes: Fab
For the molecule B1, the results for the “EC50 (read off the curve)” value in assay [1] and in assay [2] were around 0.3 µg/mL and around 0.4 µg/mL, respectively.

B2: 64D4 affinity matured Fab (16C4 variant, VH CDR2 Pro > Leu at 52A) (Fab, V domains shown)
VH: EVQLVESGGGLVQPGGSLRLSCAASGFTFSSSWMNWVRQAPGKGLEWVGRIYLGDGDTNYNVKFKGRFTISRDDSKNSLYLQMNSLKTEDTAVYYCARSGFITTVRDFDYWGQGTLVTVSS
VL: EIVLTQSPDFQSVTPKEKVTITCRASESVDTFGISFMNWFQQKPDQSPKLLIHEASNQGSGVPSRFSGSGSGTDFTLTINSLEAEDAATYYCQQSKEVPFTFGGGTKVEIK
notes: Fab with human γ1 CH1 and human kappa constant domain; position is Kabat
Take B2: the “EC50 (read off the curve)” value in assay [3] was around 1 µg/mL.
